The source of these data is article PMC5026484.

For assay [1], the target named is bMERB domain (Rab binding domain) of Mical-cL, residues 534-683 (human) (UniProt O94851). Description: ITC; iTC200, 25°C; 400 µM Rab titrated into 20–40 µM bMERB domain in the cell; 20 mM Hepes pH 7.5, 50 mM NaCl, 2 mM MgCl2, 1 mM TCEP. On the technique in general: In ITC the heat of successive injections is recorded.
For another assay, the target named is Slac2-a/melanophilin (UniProt Q91V27). The settings on record: cited from earlier work.
For a further assay, the target named is Slp2-a (UniProt Q99N50). The settings on record: cited from earlier work.
Chain of Slp2-a (Q99N50 whole entry): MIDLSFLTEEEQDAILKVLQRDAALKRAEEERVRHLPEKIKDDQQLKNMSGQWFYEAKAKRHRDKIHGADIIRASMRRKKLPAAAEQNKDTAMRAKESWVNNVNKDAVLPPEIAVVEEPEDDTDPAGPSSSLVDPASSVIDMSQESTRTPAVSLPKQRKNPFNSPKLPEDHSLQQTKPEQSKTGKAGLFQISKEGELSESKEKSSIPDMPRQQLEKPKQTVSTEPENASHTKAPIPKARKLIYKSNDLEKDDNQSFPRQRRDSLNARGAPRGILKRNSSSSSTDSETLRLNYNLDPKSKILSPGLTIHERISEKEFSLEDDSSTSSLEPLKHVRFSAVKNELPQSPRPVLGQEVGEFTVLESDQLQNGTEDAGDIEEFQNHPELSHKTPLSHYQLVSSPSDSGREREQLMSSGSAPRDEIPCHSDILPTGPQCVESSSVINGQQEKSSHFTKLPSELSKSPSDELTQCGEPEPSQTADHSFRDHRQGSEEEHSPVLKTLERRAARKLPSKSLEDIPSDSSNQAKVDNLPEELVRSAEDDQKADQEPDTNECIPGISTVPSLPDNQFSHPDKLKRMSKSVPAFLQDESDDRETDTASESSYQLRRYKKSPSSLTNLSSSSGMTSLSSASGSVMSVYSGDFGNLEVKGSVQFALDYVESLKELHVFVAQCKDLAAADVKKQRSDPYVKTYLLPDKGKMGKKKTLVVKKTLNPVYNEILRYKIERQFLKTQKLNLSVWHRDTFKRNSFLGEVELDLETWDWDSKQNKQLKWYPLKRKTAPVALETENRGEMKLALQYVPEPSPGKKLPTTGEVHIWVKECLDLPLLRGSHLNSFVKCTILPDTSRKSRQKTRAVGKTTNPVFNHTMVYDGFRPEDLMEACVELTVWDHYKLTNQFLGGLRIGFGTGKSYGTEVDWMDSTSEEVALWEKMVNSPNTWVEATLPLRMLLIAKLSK

Chain of Rab27 (Q9ERI2 2-221): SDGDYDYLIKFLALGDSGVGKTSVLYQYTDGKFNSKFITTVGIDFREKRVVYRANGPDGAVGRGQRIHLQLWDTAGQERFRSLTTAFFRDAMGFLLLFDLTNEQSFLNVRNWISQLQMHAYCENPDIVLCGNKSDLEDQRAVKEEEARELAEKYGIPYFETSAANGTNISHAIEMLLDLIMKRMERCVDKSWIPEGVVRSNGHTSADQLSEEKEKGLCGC
Chain of Slac2-a/melanophilin (Q91V27 whole entry): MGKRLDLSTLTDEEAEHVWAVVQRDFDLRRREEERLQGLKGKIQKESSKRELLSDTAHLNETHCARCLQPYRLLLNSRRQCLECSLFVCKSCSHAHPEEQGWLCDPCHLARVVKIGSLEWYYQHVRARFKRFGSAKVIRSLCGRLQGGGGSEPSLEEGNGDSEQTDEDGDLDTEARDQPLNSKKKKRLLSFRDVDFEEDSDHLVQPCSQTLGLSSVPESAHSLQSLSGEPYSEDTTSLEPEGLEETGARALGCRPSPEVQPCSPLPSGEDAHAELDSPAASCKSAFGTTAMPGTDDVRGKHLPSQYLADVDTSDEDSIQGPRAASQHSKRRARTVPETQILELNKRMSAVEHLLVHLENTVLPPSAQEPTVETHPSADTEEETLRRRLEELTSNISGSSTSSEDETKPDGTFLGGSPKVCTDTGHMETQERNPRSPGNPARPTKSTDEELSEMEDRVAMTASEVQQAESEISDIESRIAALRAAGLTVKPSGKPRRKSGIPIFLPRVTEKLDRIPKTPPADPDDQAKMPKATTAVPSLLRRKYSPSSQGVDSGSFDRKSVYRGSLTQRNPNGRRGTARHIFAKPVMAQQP
Chain of bMERB domain (Rab binding domain) of Mical-cL, residues 534-683 (human) (O94851 1796-1945): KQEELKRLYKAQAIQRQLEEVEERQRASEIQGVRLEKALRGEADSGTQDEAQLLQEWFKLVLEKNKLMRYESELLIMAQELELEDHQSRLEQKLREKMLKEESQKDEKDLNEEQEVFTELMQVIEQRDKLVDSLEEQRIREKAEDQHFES

With “Rab1R8N, chimera of Rab1b with the 4 N-terminal residues of Rab8 (from UniProt Q9H0U4 5-201) (natural protein)”, the Kd – broadly, the concentration at which binding is half-saturated – in assay [1] was determined as 1100 nM. Take Rab27 (from UniProt Q9ERI2): the figures for the equilibrium dissociation constant (Kd) with Slac2-a/melanophilin and in the assay with Slp2-a were 112 nM and 13.4 nM, respectively.
